Measured values: patent publication US20040228836A1

Target: intranuclear antigens consisting of histone DNA complexes (in fixed Raji cells)
Assay: 125I-labeled MAb incubated with fixed Raji cells; Scatchard analysis of bound radioactivity

- Ka: 2.5e+09 M⁻¹
Substance: chimeric TNT-1 monoclonal antibody (chTNT-1)
